# T1: human A33 antigen, full length, on cells (human, UniProt Q99795 22-319)
# T1 construct: CHO cells transfected with full length A33 cDNA (A33-CHO), or endogenous antigen of LS174T (colon) and AsPC-1 (pancreatic) tumour cells; The cell line is named under assay; also called A33-CHO; A33 antigen on LS174T cells
# T1 sequence: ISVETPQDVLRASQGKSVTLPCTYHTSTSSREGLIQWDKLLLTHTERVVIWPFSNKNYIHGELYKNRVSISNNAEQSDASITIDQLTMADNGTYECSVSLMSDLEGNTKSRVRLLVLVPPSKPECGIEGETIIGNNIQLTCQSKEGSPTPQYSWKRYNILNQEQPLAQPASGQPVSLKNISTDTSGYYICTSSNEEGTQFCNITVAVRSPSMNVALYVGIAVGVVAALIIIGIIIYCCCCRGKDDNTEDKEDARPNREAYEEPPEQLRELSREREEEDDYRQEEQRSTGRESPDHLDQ
# T2: human recombinant A33 antigen (human, UniProt Q99795 22-235)
# T2 construct: also called rH-GPA33; rHGPA33
# T2 sequence: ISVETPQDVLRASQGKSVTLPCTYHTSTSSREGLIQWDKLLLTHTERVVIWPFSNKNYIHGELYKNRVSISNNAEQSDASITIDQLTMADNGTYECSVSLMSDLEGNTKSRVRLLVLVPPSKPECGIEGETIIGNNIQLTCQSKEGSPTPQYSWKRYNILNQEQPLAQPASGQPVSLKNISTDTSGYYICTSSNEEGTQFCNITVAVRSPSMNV
# Legend:
# [1] = target: T1, human A33 antigen, full length, on cells; test: IHC on LS174T FFPE sections, 20ug/mL
# Experimental: (§1) Human IgG ELISA, rH-GPA33 Binding ELISA, cell Flow Cytometry (LS174T or AsPAC1), IHC staining (LS174T FFPE, tumor FFPE and Frozen tumor sections) and Coomassie blue staining of SDS-PAGE gel were used for the screening. Antibody in the culture supernatant was purified by Protein A/G purification in the column and dissolved in PBS buffer after three times dialysis. Aliquots of the antibodies were kept at -20° C. for storage.
# (§2) Each combination was produced by transient transfection by using Expi293 Expression System Kit (Gibco, cat# A14635). […] Methods of Human IgG ELISA, rH-GPA33 Binding ELISA, LS174T cell Flow Cytometry, IHC staining on LS174T FFPE sections and Coomassie blue staining of SDS-PAGE gel were used for the initial screening.
# [2] = target: T2, human recombinant A33 antigen; test: rH-GPA33 binding ELISA, 2ug/mL of 31.1, supernatant
# Experimental: as §1, §2
# [3] = target: T1, human A33 antigen, full length, on cells; test: flow cytometry on LS174T cells, 0.37ug/mL
# Experimental: as §1, §2
# [4] = target: T1, human A33 antigen, full length, on cells; test: IHC on LS174T FFPE sections, 20ug/mL, first result
# [5] = target: T1, human A33 antigen, full length, on cells; test: IHC on LS174T FFPE sections, 20ug/mL, repeat result
Binder,H-Score of IHC [1],OD Value of rH-GPA33 Binding ELISA [2],MFI [3],H-Score of IHC [4],H-Score of IHC [5]
"humanized 31.1 antibody #3 (cdr-HC + sdr-LC) (antibody, human IgG1, kappa, V domains shown, Full heavy and light chains; transient Expi293 expression, tested as culture supernatant; also called Sample ID 3; cdr31.1-HC + sdr31.1-LC) VH: QIQLVQSGAEVKKPGASVKVSCKASGYTFTNYGMNWVKQAPGKGLKWMGWINTYTGEPTYADDFKGRFAFTLDTSISTAYMELSRLRSDDTAVYFCARAYYGKYFDYWGQGTTVTVSS VL: SIQMTQSPSSLSASVGDRVTITCRASQSISNDLAWYQQKPGQSPKLLIYYASNRYTGVPDRFSGSGYGTDFTLTISSLQPEDFAVYFCQQDYSSPLTFGAGTKLEIKR",0 H-Score,0.29 OD,520 MFI,–,–
"humanized 31.1 antibody #10 (sdr-HC + abb-LC) (antibody, human IgG1, kappa, V domains shown, Full heavy and light chains; transient Expi293 expression, tested as culture supernatant; also called Sample ID 10; sdr31.1-HC + abb31.1-LC) VH: QIQLVQSGAEVKKPGASVKVSCKASGYTFTNYGMNWVRQAPGKGLEWMGWINPYTGEPTYAQKFQGRVTFTLDTSISTAYMELSRLRSDDTAVYFCARAYYGKYFDYWGQGTTVTVSS VL: SIQMTQSPSSLSASVGDRVTITCRASQSVSNDVAWYQQKPGQSPKLLIYYASNRYSGVPDRFSGSGYGTDFTLTISSLQPEDFAVYFCQQDYSSPLTFGAGTKLEIKR",–,0.07 OD,6.2 MFI,240 H-Score,115 H-Score
"humanized 31.1 antibody #4 (cdr-HC + ven-LC) (antibody, human IgG1, kappa, V domains shown, Full heavy and light chains; transient Expi293 expression, tested as culture supernatant; also called Sample ID 4; cdr31.1-HC + ven31.1-LC) VH: QIQLVQSGAEVKKPGASVKVSCKASGYTFTNYGMNWVKQAPGKGLKWMGWINTYTGEPTYADDFKGRFAFTLDTSISTAYMELSRLRSDDTAVYFCARAYYGKYFDYWGQGTTVTVSS VL: SIVMTQSPSSLSVSVGDRVTITCKASQSVSNDVAWYQQKPGQSPKLLIYYASNRYTGVPDRFSGSGYGTDFTFTISSVQPEDLAVYFCQQDYSSPLTFGAGTKLELKR",0 H-Score,1.27 OD,726 MFI,–,–
"humanized 31.1 antibody #1 (cdr-HC + cdr-LC) (antibody, human IgG1, kappa, V domains shown, Full heavy (448 aa) and light (214 aa) chains; transient Expi293 expression, tested as culture supernatant; also called Sample ID 1; cdr31.1-HC + cdr31.1-LC) VH: QIQLVQSGAEVKKPGASVKVSCKASGYTFTNYGMNWVKQAPGKGLKWMGWINTYTGEPTYADDFKGRFAFTLDTSISTAYMELSRLRSDDTAVYFCARAYYGKYFDYWGQGTTVTVSS VL: SIVMTQSPSSLSASVGDRVTITCKASQSVSNDVAWYQQKPGQSPKLLIYYASNRYTGVPDRFSGSGYGTDFTLTISSLQPEDFAVYFCQQDYSSPLTFGAGTKLEIKR",0 H-Score,0.8 OD,878 MFI,–,–
"humanized 31.1 antibody #7 (abb-HC + sdr-LC) (antibody, human IgG1, kappa, V domains shown, Full heavy and light chains; transient Expi293 expression, tested as culture supernatant; also called Sample ID 7; abb31.1-HC + sdr31.1-LC) VH: QIQLVQSGAEVKKPGASVKVSCKASGYTFTNYGMNWVRQAPGKGLEWMGWINTYTGEPTYAQKFQGRVTFTLDTSISTAYMELSRLRSDDTAVYFCARAYYGKYFDYWGQGTTVTVSS VL: SIQMTQSPSSLSASVGDRVTITCRASQSISNDLAWYQQKPGQSPKLLIYYASNRYTGVPDRFSGSGYGTDFTLTISSLQPEDFAVYFCQQDYSSPLTFGAGTKLEIKR",120 H-Score,0.2 OD,481 MFI,–,–
"humanized 31.1 antibody #12 (sdr-HC + ven-LC) (antibody, human IgG1, kappa, V domains shown, Full heavy and light chains; transient Expi293 expression, tested as culture supernatant; also called Sample ID 12; sdr31.1-HC + ven31.1-LC) VH: QIQLVQSGAEVKKPGASVKVSCKASGYTFTNYGMNWVRQAPGKGLEWMGWINPYTGEPTYAQKFQGRVTFTLDTSISTAYMELSRLRSDDTAVYFCARAYYGKYFDYWGQGTTVTVSS VL: SIVMTQSPSSLSVSVGDRVTITCKASQSVSNDVAWYQQKPGQSPKLLIYYASNRYTGVPDRFSGSGYGTDFTFTISSVQPEDLAVYFCQQDYSSPLTFGAGTKLELKR",30 H-Score,0.06 OD,10.6 MFI,–,–
"humanized 31.1 antibody #2 (cdr-HC + abb-LC) (antibody, human IgG1, kappa, V domains shown, Full heavy and light chains; transient Expi293 expression, tested as culture supernatant; also called Sample ID 2; cdr31.1-HC + abb31.1-LC) VH: QIQLVQSGAEVKKPGASVKVSCKASGYTFTNYGMNWVKQAPGKGLKWMGWINTYTGEPTYADDFKGRFAFTLDTSISTAYMELSRLRSDDTAVYFCARAYYGKYFDYWGQGTTVTVSS VL: SIQMTQSPSSLSASVGDRVTITCRASQSVSNDVAWYQQKPGQSPKLLIYYASNRYSGVPDRFSGSGYGTDFTLTISSLQPEDFAVYFCQQDYSSPLTFGAGTKLEIKR",0 H-Score,0.86 OD,821 MFI,–,–
"humanized 31.1 antibody #9 (sdr-HC + cdr-LC) (antibody, human IgG1, kappa, V domains shown, Full heavy and light chains; transient Expi293 expression, tested as culture supernatant; also called Sample ID 9; sdr31.1-HC + cdr31.1-LC) VH: QIQLVQSGAEVKKPGASVKVSCKASGYTFTNYGMNWVRQAPGKGLEWMGWINPYTGEPTYAQKFQGRVTFTLDTSISTAYMELSRLRSDDTAVYFCARAYYGKYFDYWGQGTTVTVSS VL: SIVMTQSPSSLSASVGDRVTITCKASQSVSNDVAWYQQKPGQSPKLLIYYASNRYTGVPDRFSGSGYGTDFTLTISSLQPEDFAVYFCQQDYSSPLTFGAGTKLEIKR",150 H-Score,0.07 OD,6.65 MFI,–,–

# From patent US20230295298A1 (PRECISION BIOLOGICS, published 2023)
